Assay results reported in the supplement of paper PMC9170038.

Test system: K4 kissing-loop RNA reporter
Experiment: apparent KD of K4 kissing-loop reporter; higher = weaker reporter binding
Settings: Eterna round: R107
Description: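 RNA-MaP round R107: designed RNA switches with theophylline, tryptophan, arginine or FMN aptamers are transcribed on-chip within common flanks. They are titrated with a labelled K4 kissing-loop RNA reporter in RNA-MaP buffer (100 mM Tris pH 7.5, 80 mM KCl, 4 mM MgCl2), without ligand or with the indicated ligand. Median apparent KD per design.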

[1] = input ligand: theophylline 20 uM
[2] = input ligand: tryptophan 2.4 mM
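Also: bound reporter read as fluorescence of individual clusters on recovered sequencing chips by microscopy, with normalized cluster intensities fitted with a binding model.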

CCGGCCCGGCCGGAUACCAGUGCGCCGCUGUGAACUGCGGGCCCAGAGUGAUGUUCGGGACACCCUUGGCAGCCGCCUGGGUCGC [#2 Same State - Theophylline B Attempt #26 (HarryS)]
apparent KD of K4 kissing-loop reporter (input ligand: FMN 200 uM): 358 nM
apparent KD of K4 kissing-loop reporter (input ligand: arginine 13.2 mM): 380 nM
apparent KD of K4 kissing-loop reporter (input ligand: none): 444 nM
apparent KD of K4 kissing-loop reporter [1]: 325 nM
apparent KD of K4 kissing-loop reporter [2]: 341 nM

GCAUAGGCCCAUCGGAAUUCGAGACCAGCACGAGGACCGGUACGGCCGCCACUCGUGCAGUGAUGUUGCACGAUUGGGAAACCGC [Beanveceti]
apparent KD of K4 kissing-loop reporter (input ligand: FMN 200 uM): 115 nM
apparent KD of K4 kissing-loop reporter (input ligand: arginine 13.2 mM): 100 nM
apparent KD of K4 kissing-loop reporter (input ligand: none): 101 nM
apparent KD of K4 kissing-loop reporter [1]: 104 nM
apparent KD of K4 kissing-loop reporter [2]: 111 nM

AGAUUCGACACGGCCGCCACUUCCGGUGGCUGGUGUCAUGGUGCGCGUGAGUGAUGUUUAUGUGGAAGGACCGGGUGUUGAGUCU [whbob_Ex_Tryp_B_w41]
apparent KD of K4 kissing-loop reporter (input ligand: FMN 200 uM): 597 nM
apparent KD of K4 kissing-loop reporter (input ligand: arginine 13.2 mM): 525 nM
apparent KD of K4 kissing-loop reporter (input ligand: none): 730 nM
apparent KD of K4 kissing-loop reporter [1]: 751 nM
apparent KD of K4 kissing-loop reporter [2]: 872 nM

AGUGUUAGGUUAGAUACCAGCCGUUCGUGAAUAGUCUUCGAACCGCCAGUGAUGUUGGCAGGCCCUUGGCAGCUAACAGAACAGA [Lagelare]
apparent KD of K4 kissing-loop reporter (input ligand: FMN 200 uM): 212 nM
apparent KD of K4 kissing-loop reporter (input ligand: arginine 13.2 mM): 199 nM
apparent KD of K4 kissing-loop reporter (input ligand: none): 198 nM
apparent KD of K4 kissing-loop reporter [1]: 159 nM
apparent KD of K4 kissing-loop reporter [2]: 208 nM

GGACGACAGUCGGCCGCCACUCACAGCCGCCAGUGAUGUUGGAUUGUAGCGGAGUGAUGUUUCGCGAGGACCGGGACUGCAGUCC [Same State Tryptophan B GF 15]
apparent KD of K4 kissing-loop reporter (input ligand: FMN 200 uM): 417 nM
apparent KD of K4 kissing-loop reporter (input ligand: arginine 13.2 mM): 380 nM
apparent KD of K4 kissing-loop reporter (input ligand: none): 455 nM
apparent KD of K4 kissing-loop reporter [1]: 413 nM
apparent KD of K4 kissing-loop reporter [2]: 460 nM

GGUAGCGCCAGAGAUACCAGUCAUAUCGCUCUGGAGUGAUGUUCCGGAACGUGCGGAGAAGACCCUUGGCAGCUCAUGACGGUAU [Exclusion Theophylline B GF 3]
apparent KD of K4 kissing-loop reporter (input ligand: FMN 200 uM): 219 nM
apparent KD of K4 kissing-loop reporter (input ligand: arginine 13.2 mM): 175 nM
apparent KD of K4 kissing-loop reporter (input ligand: none): 189 nM
apparent KD of K4 kissing-loop reporter [1]: 227 nM
apparent KD of K4 kissing-loop reporter [2]: 171 nM

AUUAUAUAAUGGAGUGAUGUUCCAUCAGAUACCAGUGAAUUUGAACACCCUUGGCAGCUGUUGUUCAAAUAAUUUAAAUCCUUUA [JR_SSTheophyA_Sub019]
apparent KD of K4 kissing-loop reporter (input ligand: FMN 200 uM): 129 nM
apparent KD of K4 kissing-loop reporter (input ligand: arginine 13.2 mM): 150 nM
apparent KD of K4 kissing-loop reporter (input ligand: none): 132 nM
apparent KD of K4 kissing-loop reporter [1]: 166 nM
apparent KD of K4 kissing-loop reporter [2]: 103 nM

AAACAUAAGUCUGAUACCAGCCUGGGAGAAGUGAUGUUUCUCGGUGCAUAACGCCUAUAAGGCCCUUGGCAGCAGCAUGCGCUUC [theeternabot_sameState_KL_Theo_B_10]
apparent KD of K4 kissing-loop reporter (input ligand: FMN 200 uM): 547 nM
apparent KD of K4 kissing-loop reporter (input ligand: arginine 13.2 mM): 485 nM
apparent KD of K4 kissing-loop reporter (input ligand: none): 569 nM
apparent KD of K4 kissing-loop reporter [1]: 471 nM
apparent KD of K4 kissing-loop reporter [2]: 516 nM

ACUGAGCAUGCGGCCGCCACUUCAGAACGUCGCCCAGAGGGCGACGCCUCCGCAGUGAUGUUGUGGAGGACCGGGCAUGUUCAGA [Omei KL Tryp B Exc A v5]
apparent KD of K4 kissing-loop reporter (input ligand: FMN 200 uM): 419 nM
apparent KD of K4 kissing-loop reporter (input ligand: arginine 13.2 mM): 360 nM
apparent KD of K4 kissing-loop reporter (input ligand: none): 355 nM
apparent KD of K4 kissing-loop reporter [1]: 451 nM
apparent KD of K4 kissing-loop reporter [2]: 420 nM

AGCAAUAUCACGGCCGCCACUGAUUAUUGUUUUUAUAGUUAUAAAUCUUGCCAGUGAUGUUGGUUCAGGACCGGGUGAGUUAAUA [JR_SSTryptoB_Sub002]
apparent KD of K4 kissing-loop reporter (input ligand: FMN 200 uM): 498 nM
apparent KD of K4 kissing-loop reporter (input ligand: arginine 13.2 mM): 565 nM
apparent KD of K4 kissing-loop reporter (input ligand: none): 727 nM
apparent KD of K4 kissing-loop reporter [1]: 620 nM
apparent KD of K4 kissing-loop reporter [2]: 373 nM

CCCUCACGAGUGAUGUUCGUAGGGUACAGUCAGGAUAUCAUGCGGUUGAGAAGGGACAGAGAGGGCGGCGGCGGGUUGCUCCUCU [Beeded]
apparent KD of K4 kissing-loop reporter (input ligand: FMN 200 uM): 290 nM
apparent KD of K4 kissing-loop reporter (input ligand: arginine 13.2 mM): 240 nM
apparent KD of K4 kissing-loop reporter (input ligand: none): 281 nM
apparent KD of K4 kissing-loop reporter [1]: 711 nM
apparent KD of K4 kissing-loop reporter [2]: 495 nM

AGGCACGAGCAAGGAUAUCGAGUAGAGUGAUGUUCUGCCUGGGUUGGCUCGGAAGAGCCUUCUCAGCGAGAAGGUGCUCGUGCCU [#2 Same State - FMN A Attempt #19 (HarryS)]
apparent KD of K4 kissing-loop reporter (input ligand: FMN 200 uM): 235 nM
apparent KD of K4 kissing-loop reporter (input ligand: arginine 13.2 mM): 604 nM
apparent KD of K4 kissing-loop reporter (input ligand: none): 747 nM
apparent KD of K4 kissing-loop reporter [1]: 923 nM
apparent KD of K4 kissing-loop reporter [2]: 888 nM

UGUGAUGUGUAGAGUGAUGUUUUGAAGGAUACCAGAGUGUUGUUAUUCCCUUGGCAGCUUGAGUGAUGUUUGAUGUUGUUGUUGU [efvrmullin]
apparent KD of K4 kissing-loop reporter (input ligand: FMN 200 uM): 228 nM
apparent KD of K4 kissing-loop reporter (input ligand: arginine 13.2 mM): 120 nM
apparent KD of K4 kissing-loop reporter (input ligand: none): 194 nM
apparent KD of K4 kissing-loop reporter [1]: 133 nM
apparent KD of K4 kissing-loop reporter [2]: 152 nM

CGCCGUAAGGCGGUCGCUCCCACUCCGGAAGGAGCGCCCGCAAGGGCAGGUAGGUCGCCGGAGUGAUGUUCCGGUGGAGGGACCG [#2 Exclusion - Arginine A Attempt #7 (Inspired by Omei)]
apparent KD of K4 kissing-loop reporter (input ligand: FMN 200 uM): 207 nM
apparent KD of K4 kissing-loop reporter (input ligand: arginine 13.2 mM): 161 nM
apparent KD of K4 kissing-loop reporter (input ligand: none): 260 nM
apparent KD of K4 kissing-loop reporter [1]: 216 nM
apparent KD of K4 kissing-loop reporter [2]: 186 nM

AACUCUCAGACAUCUGAGUGAUGUUCAGGCCGAGGACCGGUACGGCCGCCACUCGGGUCUGAGAGAGGUUAUCAAAGAUAGCCAA [Omei KL Tryp A SS A v4]
apparent KD of K4 kissing-loop reporter (input ligand: FMN 200 uM): 570 nM
apparent KD of K4 kissing-loop reporter (input ligand: arginine 13.2 mM): 356 nM
apparent KD of K4 kissing-loop reporter (input ligand: none): 468 nM
apparent KD of K4 kissing-loop reporter [1]: 390 nM
apparent KD of K4 kissing-loop reporter [2]: 540 nM

AGUGAUGUUGUGUUAUGUUAGUGAAGUGAUCGAGGACCGGUACGGCCGCCACUCGAGUGAUGAGUGAGUGAUGUUUGUUUAGGGA [popmullin]
apparent KD of K4 kissing-loop reporter (input ligand: FMN 200 uM): 1100 nM
apparent KD of K4 kissing-loop reporter (input ligand: arginine 13.2 mM): 674 nM
apparent KD of K4 kissing-loop reporter (input ligand: none): 1140 nM
apparent KD of K4 kissing-loop reporter [1]: 990 nM
apparent KD of K4 kissing-loop reporter [2]: 486 nM

ACCUAGUAGACAGGAUAUCACCAUGACAGUGAUGUUGUCAUGCUCGAUUUGAGGAAACUCAGAUCGUGAGAAGGGUCUAACGACU [FMN B SS t7]
apparent KD of K4 kissing-loop reporter (input ligand: FMN 200 uM): 136 nM
apparent KD of K4 kissing-loop reporter (input ligand: arginine 13.2 mM): 149 nM
apparent KD of K4 kissing-loop reporter (input ligand: none): 170 nM
apparent KD of K4 kissing-loop reporter [1]: 146 nM
apparent KD of K4 kissing-loop reporter [2]: 158 nM

CCUAUCUCAUACGAUACCAGUCAAUGAAAUUUUAUCAAUGCCAUCACCGAGUGAUGUUCGGACCCUUGGCAGCGUAUGGGAUAGG [Ex Theophylline B K4 3]
apparent KD of K4 kissing-loop reporter (input ligand: FMN 200 uM): 249 nM
apparent KD of K4 kissing-loop reporter (input ligand: arginine 13.2 mM): 195 nM
apparent KD of K4 kissing-loop reporter (input ligand: none): 237 nM
apparent KD of K4 kissing-loop reporter [1]: 329 nM
apparent KD of K4 kissing-loop reporter [2]: 223 nM

ACGUGCACCAGUGAUGUUGGAAAAUAUGAAGGAGCGGGAGAAAACCCAGGUAGGUCGCAUAAUAGCACGAGCCACGAAAGUGGCA
apparent KD of K4 kissing-loop reporter (input ligand: FMN 200 uM): 191 nM
apparent KD of K4 kissing-loop reporter (input ligand: arginine 13.2 mM): 81.4 nM
apparent KD of K4 kissing-loop reporter (input ligand: none): 122 nM
apparent KD of K4 kissing-loop reporter [1]: 196 nM
apparent KD of K4 kissing-loop reporter [2]: 107 nM

AGACUACCACACUGUCAAUAGACAGUGUACUAGGAUAUGCUGAUAAGCAGAAGGAGUGAUGUUCCAAGGUAGUCAAUAAAAUAAU [FmnAX 13 U28+A66]
apparent KD of K4 kissing-loop reporter (input ligand: FMN 200 uM): 393 nM
apparent KD of K4 kissing-loop reporter (input ligand: arginine 13.2 mM): 213 nM
apparent KD of K4 kissing-loop reporter (input ligand: none): 206 nM
apparent KD of K4 kissing-loop reporter [1]: 291 nM
apparent KD of K4 kissing-loop reporter [2]: 206 nM

GUAUCGCUAGGAGGAUAUUUCAAAUAAUAAAUAAAUGGAUAUACGGAGUGAUGUUCCGAUUUACGGAAAGAAGGCCUAGUGAUAC [FMN B 1]
apparent KD of K4 kissing-loop reporter (input ligand: FMN 200 uM): 136 nM
apparent KD of K4 kissing-loop reporter (input ligand: arginine 13.2 mM): 179 nM
apparent KD of K4 kissing-loop reporter (input ligand: none): 194 nM
apparent KD of K4 kissing-loop reporter [1]: 190 nM
apparent KD of K4 kissing-loop reporter [2]: 171 nM
